B1: cr191 (nucleic acid)
guide: GTTTAAGAGCTAAGCTGGAAACAGCATAGCAACTTTAAATAAGGCTAGTCCGTTATCAACTTGAAAAAGTGGCAGCGAGTCGCTGCT
modifications: listed as DNA, chemistry not fully specified
B2: cr795 (nucleic acid)
guide: GTTTAAGAGCTAAGCTGGAAACAGCATAGCAAGTTTAAATAATGCTAGTCAGTTATCAACTTGAAAAAGTGTCTCCGAGTCGGAGAT
modifications: listed as DNA, chemistry not fully specified
B3: cr280 (nucleic acid)
guide: GTTTAAGAGCTAAGCTGGAAACAGCATAGCAACTTTAAATAAGGCTAGTCCGTTATCAACTTGAAAAAGTGTCACCGAGTCGGTGAT
modifications: listed as DNA, chemistry not fully specified
B4: cr250 (nucleic acid)
guide: GTTTAAGAGCTAAGCTGGAAACAGCATAGCAAGTTTAAATAAGGCTAGACCGTTATCAACTTGAAAAAGTCGCACCGAGGCGGTGCT
modifications: listed as DNA, chemistry not fully specified
B5: cr424 (nucleic acid)
guide: GTTTAAGAGCTAAGCTGGAAACAGCATAGCAAGTTTAAATAACGCTAGTCGGTTATCAACTTGAAAAAGTGGCGTCGAGTCGACGCT
modifications: listed as DNA, chemistry not fully specified
B6: cr337 (nucleic acid)
guide: GTTTAAGAGCTAAGCTGGAAACAGCATAGCAAGTTTAAATAACGCTAGTCGGTTATCAACTTGAGAAAGTGGCACCGAGTCGGTGCT
modifications: listed as DNA, chemistry not fully specified
B7: cr663 (nucleic acid)
guide: GTTTAAGAGCTAAGCTGGAAACAGCATAGCAAGGTTAAATAAGGCTAGTCCGTTATCAACTTGAAAAAGTGGCACCTAGTAGGTGCT
modifications: listed as DNA, chemistry not fully specified
B8: cr079 (nucleic acid)
guide: GGTCAAGAGCTAAGCTGGAAACAGCATAGCAAGTTTAAATAAGGCTAGTCCGTTATCAACTTGAAAAAGTGGCACCGAGTCGGTGCT
modifications: listed as DNA, chemistry not fully specified
B9: cr204 (nucleic acid)
guide: GTTTAAGAGCTAAGCTGGAAACAGCATAGCAAGCTTAAATAAGTCTAGTACGTTATCAACTTGAAAAAGTGGCACCGAGTCGGTGCT
modifications: listed as DNA, chemistry not fully specified
B10: cr044 (nucleic acid)
guide: GTGTAAGTGCTAAGCTGGAAACAGCATAGCAAGTTTAAATAAGGCTAGTCCGTTATCAACTTGAAAAAGTGGCACCGAGTCGGTGCT
modifications: listed as DNA, chemistry not fully specified
B11: cr750 (nucleic acid)
guide: GTTTAAGAGCTAAGCTGGAAACAGCATAGCAAGGTTAAATAAGGCTAGTCCGTTATCAATTTGAAAAAATGGCACCGAGTCGGTGCT
modifications: listed as DNA, chemistry not fully specified
B12: cr860 (nucleic acid)
guide: GTTTAAGAGCTAAGCTGGAAACAGCATAGCAAGCTTAAATAAAGCTAGTCTGTTATCAACTTGAAAAAGTGGCACCGAGTCGGTGCT
modifications: listed as DNA, chemistry not fully specified
B13: cr773 (nucleic acid)
guide: GTTTAAGAGCTAAGCTGGAAACAGCATAGCAAGGTTAAATAAGGCTTGTCCGTTATCAACTTGGAAAAGTGGCACCGAGTCGGTGCT
modifications: listed as DNA, chemistry not fully specified
B14: cr111 (nucleic acid)
guide: GTTTAAGAGCTAAGCTGGAAACAGCATAGCAACTTTAAATAAGGCTAGTCCGTTATCAACTTGAAAAAGTGGCACAGAGTCTGTGCT
modifications: listed as DNA, chemistry not fully specified
B15: cr024 (nucleic acid)
guide: TTGTAAGAGCTAAGCTGGAAACAGCATAGCAAGTTTAAATAAGGCTAGTCCGTTATCAACTTGAAAAAGTGGCACCGAGTCGGTGCT
modifications: listed as DNA, chemistry not fully specified
B16: cr332 (nucleic acid)
guide: GTTTAAGAGCTAAGCTGGAAACAGCATAGCAATATTAAATAAGGCTAGTCCGTTATCAACTTGAAAAAGTGGCACCGAGTCGGTGCT
modifications: listed as DNA, chemistry not fully specified
B17: cr445 (nucleic acid)
guide: GTTTAAGAGCTAAGCTGGAAACAGCATAGCAAGTTTAAATAAGGCTAGTCCGTTATCAACTTGAAAAAGTGGCATCCAGTTGCTGCT
modifications: listed as DNA, chemistry not fully specified
B18: cr475 (nucleic acid)
guide: GTTTAAGAGCTAAGCTGGAAACAGCATAGCAAGTTTAAATTAGGCTAGTCCGTTATCAACTTGATAAAGTGGCACCGAGTCGGTGCT
modifications: listed as DNA, chemistry not fully specified
B19: cr103 (nucleic acid)
guide: GTTTAAGAGCTAAGCTGGAAACAGCATAGCATGTTTAAATAAGGCTAGTCCTTTATCAACTTGAAAAAGTGGCACCGAGGCGGTGCT
modifications: listed as DNA, chemistry not fully specified
B20: cr665 (nucleic acid)
guide: GTTTAAGAGCTAAGCTGGAAACAGCATAGCAACTTTAAATAAGGCTAGTCCGTTATCAACTTGAAAAAGTGCCACCGAGTCGGTGGT
modifications: listed as DNA, chemistry not fully specified
B21: cr949 (nucleic acid)
guide: GTTTAAGAGCTAAGCTGGAAACAGCATAGCAAGGTTAAATAAGGCTAGTCCGTTATCAACTTGATAAAGTGGCACCGAGTCGGTGCT
modifications: listed as DNA, chemistry not fully specified
B22: cr649 (nucleic acid)
guide: GTTTAAGAGCTAAGCTGGAAACAGCATAGCAACTTTAAATAAGGTTAATCCGTTATCAACTTGAAAAAGTGGCACCGAGTCGGTGCT
modifications: listed as DNA, chemistry not fully specified
B23: cr528 (nucleic acid)
guide: GTTTAAGAGCTAAGCTGGAAACAGCATAGCCGCTTTAAATAAGGCTAGTCCGTTATCAACTTGAAAAAGTGGCACCGAGTCGGTGCT
modifications: listed as DNA, chemistry not fully specified
B24: cr613 (nucleic acid)
guide: GTTTAAGAGCTAAGCTGGAAACAGCATAGCAAGTTTAAATAACGGTACTCGGTTATCAACTTGAAAAAGTGGCACCGAGTCGGTGCT
modifications: listed as DNA, chemistry not fully specified
B25: cr067 (nucleic acid)
guide: CTTGAAGAGCTAAGCTGGAAACAGCATAGCAAGTTTAAATAAGGCTAGTCCGTTATCAACTTGAAAAAGTGGCACCGAGTCGGTGCT
modifications: listed as DNA, chemistry not fully specified
B26: cr509 (nucleic acid)
guide: GTTTAAGAGCTAAGCTGGAAACAGCATAGCAAGTTTAAATAACGCTAGTCGGTTATCAACTTGAAAAAGTGGCAACGAGTCGTTGCT
modifications: listed as DNA, chemistry not fully specified
B27: cr268 (nucleic acid)
guide: GTTTAAGAGCTAAGCTGGAAACAGCATAGCAAGGTTAAATAAGGCTAGTCCGTTATCAACTTGAAAAAGTGGCACAGAGTCTGTGCT
modifications: listed as DNA, chemistry not fully specified
B28: cr524 (nucleic acid)
guide: GTTTAAGAGCTAAGCTGGAAACAGCATAGCAAGTTTAAATAAGGCTAGTCCGTTATCAACTTGTAAAAGTGGCACCGAGTCGGTGCT
modifications: listed as DNA, chemistry not fully specified
B29: cr704 (nucleic acid)
guide: GTTTAAGAGCTAAGCTGGAAACAGCATAGCAAGTTTAAATAAGGCTAGTCCGTTATCAACTTGAAAAAGCGGCACCGAGTCGGTGCT
modifications: listed as DNA, chemistry not fully specified
B30: cr628 (nucleic acid)
guide: GTTTAAGAGCTAAGCTGGAAACAGCATAGCAAGTTTAAATAAGGCTAGTCCGTTATCAACTTGAAAAAGTGGTACCAAGTTGGTACT
modifications: listed as DNA, chemistry not fully specified

Test system: K562 CRISPRi cells
Assay: Constant region variant library pooled growth screen, K562
Type: cell-based, human
Details: sgRNA constant region variant; activity relative to unmodified constant region cr995; mean CRISPRi activity
Method in brief: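 Pooled library transduced into K562 CRISPRi cells in duplicate, puromycin-selected, grown at >2000× coverage and sampled after 4 to 8 days. Phenotypes per targeting sequence:constant region pair were normalized to the unmodified-scaffold pairing to give relative activity.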

Molecule | Mean relative activity
B1 | 0.01358
B2 | 0.009911
B3 | 0.01273
B4 | 0.01012
B5 | 0.01319
B6 | 0.01313
B7 | 0.01081
B8 | 0.01223
B9 | 0.01236
B10 | 0.01046
B11 | 0.01125
B12 | 0.01022
B13 | 0.01327
B14 | 0.013
B15 | 0.01205
B16 | 0.01145
B17 | 0.01078
B18 | 0.0113
B19 | 0.01259
B20 | 0.01294
B21 | 0.01022
B22 | 0.01138
B23 | 0.01243
B24 | 0.01125
B25 | 0.01012
B26 | 0.01061
B27 | 0.01166

Same assay, conditions: sgRNA constant region variants; activity relative to the original, un-modified constant region cr995

Molecule | Mean relative activity
B28 | 1.032
B29 | 1.033
B30 | 1.033

Reference: patent publication US20220259593A1, “CONTROL OF MAMMALIAN GENE DOSAGE USING CRISPR” (The Regents of the University of California, priority 2019, published 2022)
